What all share (experiment): cell-based or functional assay
The target in experiment [1] is Angiostatin + Binding Domain (yeast two-hybrid bait fusion) (UniProt P00747).
The target in experiment [2] is p53 + Binding Domain.
Experiment [3] deals with Binding Domain alone.

The values below come from EP1088069B1.

UniProt P00747, sequence (P00747 99-459): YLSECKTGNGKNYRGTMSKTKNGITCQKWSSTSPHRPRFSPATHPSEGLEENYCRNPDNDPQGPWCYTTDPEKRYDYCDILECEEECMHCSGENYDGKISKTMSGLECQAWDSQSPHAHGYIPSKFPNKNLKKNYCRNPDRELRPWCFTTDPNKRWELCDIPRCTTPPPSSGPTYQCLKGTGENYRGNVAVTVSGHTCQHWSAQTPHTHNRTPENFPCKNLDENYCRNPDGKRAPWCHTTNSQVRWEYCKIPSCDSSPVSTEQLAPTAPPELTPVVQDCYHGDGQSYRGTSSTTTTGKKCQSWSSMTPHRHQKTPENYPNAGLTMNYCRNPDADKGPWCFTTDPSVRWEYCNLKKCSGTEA

Turning to “Activation Domain alone (from UniProt P04386 768-881)”, the β-Gal Activity in experiment [1] is less than 0.04 u.

Turning to “Big3 - Activation Domain (yeast two-hybrid prey fusion) (from UniProt Q4VCS5 871-1013)”, the β-Gal Activity in experiment [2] was found to be 0.05 u; in experiment [3], 0.07 u; in experiment [1], 15 u.

Consider “SV40LT - Activation Domain (from UniProt P03070 84-708)”, for which the β-Gal Activity in experiment [2] stood at 90 u.
